Assay results from paper PMC6620310, “A ubiquitin-like domain is required for stabilizing the N-terminal ATPase module of human SMCHD1” (Communications Biology, 2019).

B1: SMCHD1(24–580) wild-type [human] / itself (parent complex)
chain: GHRTVYLFDRREKESELGDRPLQVGERSDYAGFRACVCQTLGISPEEKFVITTTSRKEITCDNFDETVKDGVTLYLLQSVNQLLLTATKERIDFLPHYDTLVKSGMYEYYASEGQNPLPFALAELIDNSLSATSRNIGVRRIQIKLLFDETQGKPAVAVIDNGRGMTSKQLNNWAVYRLSKFTRQGDFESDHSGYVRPVPVPRSLNSDISYFGVGGKQAVFFVGQSARMISKPADSQDVHELVLSKEDFEKKEKNKEAIYSGYIRNRKPSDSVHITNDDERFLHHLIIEEKEKDSFTAVVITGVQPEHIQYLKNYFHLWTRQLAHIYHYYIHGPKGNEIRTSKEVEPFNNIDIEISMFEKGKVPKIVNLREIQDDMQTLYVNTAADSFEFKAHVEGDGVVEGIIRYHPFLYDRETYPDDPCFPSKLKDEDDEDDCFILEKAARGKRPIFECFWNGRLIPYTSVEDFDWCTPPKKRGLAPIECYNRISGALFTNDKFQVSTNKLTFMDLELKLKDKNTLFTRILNGQEQRMKIDREFALWLKDCHEKYDKQIKFTLFK

Variants of: B1
Assay: native PAGE; parent: 0.098; read off a plot

| Variant | screen value |
| --- | --- |
| chain 1 G114E | ~0.15 |
| chain 1 E450Q | ~0.12 |
| chain 1 E450G | ~0.2 |
| chain 1 G455E | ~0.01 |
| chain 1 H325R | ~0.12 |
| chain 1 L171F | ~0.008 |

The remaining lines, values ahead:

| screen value | Variant |
| --- | --- |
| ~0.11 | chain 1 T500K |
| ~0.11 | chain 1 Q322R |
| ~0.012 | chain 1 Y260C |
| ~0.093 | chain 1 N116H |
| ~0.096 | chain 1 S112C |
